{"source": "paper doi:10.1101/2020.11.17.387910", "about": "(bioRxiv, 2020)", "proteins": {"B1": {"name": "human P5 (PDIA6), full-length (enzyme, UniProt Q15084 20-440, looked up)", "chain": "LYSSSDDVIELTPSNFNREVIQSDSLWLVEFYAPWCGHCQRLTPEWKKAATALKDVVKVGAVDADKHHSLGGQYGVQGFPTIKIFGSNKNRPEDYQGGRTGEAIVDAALSALRQLVKDRLGGRSGGYSSGKQGRSDSSSKKDVIELTDDSFDKNVLDSEDVWMVEFYAPWCGHCKNLEPEWAAAASEVKEQTKGKVKLAAVDATVNQVLASRYGIRGFPTIKIFQKGESPVDYDGGRTRSDIVSRALDLFSDNAPPPELLEIINEDIAKRTCEEHQLCVVAVLPHILDTGAAGRNSYLEVLLKLADKYKKKMWGWLWTEAGAQSELETALGIGGFGYPAMAAINARKMKFALLKGSFSEQGINEFLRELSFGRGSTAPVGGGAFPTIVEREPWDGRDGELPVEDDIDLSDVELDDLGKDEL"}}, "biological_target": "the molecule itself", "assay": "SAXS"}
{"protein": "B1", "values": [{"measurement": "stoichiometry N", "result": 2}]}
